This data set deals with the molecule itself. Kind of data set: SEC. For orientation: In gel filtration, larger molecules generally elute earlier.

B1: WT-Cp149 dimer (HBV core protein residues 1-149) (domain or fragment)
chain: MDIDPYKEFGATVELLSFLPSDFFPSVRDLLDTASALYREALESPEHCSPHHTALRQAILCWGELMTLATWVGVNLEDPASRDLVVSYVNTNMGLKFRQLLWFHISCLTFGRETVIEYLVSFGVWIRTPPAYRPPNAPILSTLPETTVV
notes: source: E. coli NiCo21(DE3), purified
Turning to B1, the binding result was “binds”.

The values are drawn from PMC12342251, “HBV capsid assembly modulators differentially modulate the assembly of wild-type and drug-resistant core protein chimeric nucleocapsids and empty capsids” (PLOS Pathogens, 2025).
